Laboratory results from the supplement of paper PMC9170038.

Tested on: K4 kissing-loop RNA reporter
Assay: apparent KD of K4 kissing-loop reporter; higher = weaker reporter binding
Conditions: Eterna round: R107
Protocol: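 RNA-MaP round R107: designed RNA switches with theophylline, tryptophan, arginine or FMN aptamers are transcribed on-chip within common flanks. They are titrated with a labelled K4 kissing-loop RNA reporter in RNA-MaP buffer (100 mM Tris pH 7.5, 80 mM KCl, 4 mM MgCl2), without ligand or with the indicated ligand. Median apparent KD per design.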

[1] = input ligand: theophylline 20 uM
[2] = input ligand: tryptophan 2.4 mM
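Note: bound reporter read as fluorescence of individual clusters on recovered sequencing chips by microscopy, with normalized cluster intensities fitted with a binding model.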

Sequence	apparent KD of K4 kissing-loop reporter (input ligand: FMN 200 uM) [µM]	apparent KD of K4 kissing-loop reporter (input ligand: arginine 13.2 mM) [µM]	apparent KD of K4 kissing-loop reporter (input ligand: none) [µM]	apparent KD of K4 kissing-loop reporter [1] [µM]	apparent KD of K4 kissing-loop reporter [2] [µM]
AGCAUUUUCAGAAGGAGCGUGAAUUAUUCAUAAUUAUAUUAUACGAGUGAUGUUCGUAUUUCACAGGUAGGUCGCUGAUAUAGCA [JR_SSArginiB_Sub002]	0.0514	0.0783	0.0501	0.0816	0.0466
AGCCGAAAGGCGAGUGCUGUCACUCCGGAAGGAGCGCUCGAAAGAGCAGGUAGGUCGCCGGAGUGAUGUUCCGGUGCAGCACUCA [Omei KL Arginine A Exc B v5]	0.654	0.39	1.25	1.21	1.1
AGCCGUCUAAGUGAUGUUUAGGCAUGUCAGCGAGGACCGGUACGGCCGCCACUCGUGCUAUUGAGAUUUCGGGUAGCCCACGUAG [theeternabot_sameState_KL_Trp_A_20]	0.288	0.187	0.271	0.125	0.163
AGCGAGUGAUGUUCGCUGAUCAUGAGAAGUUAGGAUAUAUACUUGCAUAGAAGGAACUAUUUCAUGACAUUAGAGGCAGUAGUUC [FMN A SS t7]	0.159	0.16	0.158	0.152	0.125
AGCGGCCAGUCGGCCGCCACUCCAGGCAGUGAUGUUGCGAAGUUUCUACUAGAGUGAUGUUCUAAGAGGACCGGGACUGACGUAA [Exclusion Tryptophan B Gf 9]	0.217	0.218	0.253	0.291	0.199
AGCUAGUACGCAGGAUAUUGAACAUCAUUUAGUGAGAUCGAGUGAUGUUCGAUCACGACUUCAGUUCGAGAAGGGCGUACUAGCA [#02 K4 FMN B Same State]	0.16	0.663	0.931	1.07	0.861
AGCUAGUGAAACUAGUUUAAACUAGGUGAAGGAGCGAUCGAAAGAUCAGGUAGGUCGCACCUAACUGAGUGAUGUUCAGGAAAUA [KL-SSArg-A4]	0.0671	0.0543	0.0707	0.0667	0.0613
AGGAGCGUGCGAUGAAAAUCGCACGCUCCUCGAGGACCGGUACGGCCGCCACUCGCUCGCGCCGAGUGAUGUUCGGCCGGCGAAC [#2 Same State - Tryptophan A Attempt #8 (HarryS)]	0.194	0.18	0.234	0.269	0.966
AGGCACGAGCAAGGAUAUCGAGUAGAGUGAUGUUCUGCCUGGGUUGGCCCGAAAGGGCCUUCCCAGCGAGAAGGUGCUCGUGCCU [#2 Same State - FMN A Attempt #9 (HarryS)]	0.222	0.588	0.766	0.492	0.863
AGGCACGAGCAAGGAUAUUGAGUAGAGUGAUGUUCUGCCUGGGUUGGCUCGUAAGAGCCUUCUCAGCGAGAAGGUGCUCGUGCCU [#2 Same State - FMN A Attempt #23 (HarryS)]	0.254	0.432	0.679	0.552	0.636
AGGUACUACGGAAGGAGCGCACCAGUGAUGUUGGUGUGUGACCGUGACAUGGCAGUCAAGGUGCAGGUAGGUCGCCGUGGCCUUU [Anatartibe]	0.143	0.113	0.146	0.122	0.115
AGGUGCUACGGAAGGAGCGCACCAGUGAUGUUGGUGUGUGACCGUGACAUGGCAGUCAAGGUGCAGGUAGGUCGCCGUGGCCUUU [Geeseris]	0.137	0.108	0.131	0.138	0.136
AGGUGGGACGUAGGAUAUCCCUAAUGAUUUACUUCCUGGUUGCUACGCUUCCAGUGAUGUUGGAAGGGAGAAGGACGGGCGAGUU [Riatbive]	0.365	0.217	0.213	0.217	0.222
AGGUUUUGAUUAGGAUAUGCACUGACGACGAGAAUAUAGUGAUGUUAUAUAAUACGAAUUAGUAGAGUAGAAGGGAUUGAGGUUU [SSFMNB.X]	0.422	0.307	0.348	0.39	0.286
AGGUUUUGCGGAGGAUAUGCACUGAGGAGGAGAAUAUAGUGAUGUUAUAUAAGAGGAAGGAGAAGAGUAGAAGGCCGUGAGGUUU [SSFMNB.N]	0.144	0.109	0.115	0.124	0.0821
AGUACGGUGCCGUUCAGAUCAACGUAUGAUACCAGCUCGUAUAUUAGCCCUUGGCAGCAUCCGAGUGAUGUUCGGAUUGUGCCAC [theeternabot_exclusion_KL_Theo_A_45]	0.113	0.098	0.102	0.0935	0.102
AGUAGAGCAUCAGAUACCAGACAGAACUGAUGGUAAGGAGUGAUGUUCCUUAAUCAGCUUGUCCCUUGGCAGCUGAUAAUAGUCA [#13 K4 Theophylline B Same State]	0.423	0.437	0.475	0.359	0.438
AGUCCACUCUAAAGAGUGGACCUAAGGGAUACCAGUGAUGUUGGUCACCCUUGGCAGCCCUCUGUCAUCGAUAAAGAUGGCAGUA	0.119	0.101	0.118	0.13	0.131
AGUCUGUAUGACAUAAGUGAUGUUUAUGUUCGAGGACCGGUACGGCCGCCACUCGCAAAUGUAUGAUUUCACGUUUGUGCAAGUA [KL-XTryp-A #analogue]	0.196	0.183	0.207	0.22	0.292
AGUGACGUCGCGGCCGCCACUGAAAUGACAGUGAUGUUGUCAAAAGAAAGUGAUGUUAAGAAAUGCAGGACCGGGUGAUAGAAAA [semi-accidental]	0.223	0.144	0.158	0.143	0.125
AGUGAUGUAUGGCGGUGUGUCGCUUAAAAUCAGGAUAUAUAAACAAAUAGAAGGGAUGGCGGAGUGAUGUUCCGCCGGCCGCCAU [FMN A Exl V2]	0.127	0.118	0.134	0.136	0.128

Sequence	apparent KD of K4 kissing-loop reporter (input ligand: FMN 200 uM) [µM]	apparent KD of K4 kissing-loop reporter (input ligand: arginine 13.2 mM) [µM]	apparent KD of K4 kissing-loop reporter (input ligand: none) [µM]	apparent KD of K4 kissing-loop reporter [1] [µM]	apparent KD of K4 kissing-loop reporter [2] [µM]
AGUGAUGUGGGAAGGAGCGCUACAUCACUUCAGUGAUGUUGAAGUGAUGAAUUAGUGAUGUAGCAGGUAGGUCGCCUAGAUGUUA [KL-XARG-B12]	0.0763	0.0385	0.0583	0.0608	0.0513
AGUGAUGUGGGAAGGAGCGCUAUAAGACUUCAGUGAUGUUGAAGUGCUGGUUUAGUGUUGUAGCAGGUAGGUCGCCUAGAUGUUA [KL-XARG-B11]	0.293	0.239	0.275	0.196	0.218
AGUGAUGUGGGAAGGAGCGGUAUAUGAGUUCAGUGAUGUUGAAGUGAUGCUGUAGUGAUGUGCCAGGUAGGUCGCCUAGAUGUUA [whbob_Ex_Arginine_B_2th165]	0.374	0.217	0.395	0.194	0.29
AGUGAUGUUGUGUUAUCUUAGUGAAGUGAUCGAGGACCGGUACGGCCGCCACUCGAGUGAUGAGUGAGUGAUGUUUGUUUAGGGA [vvbmullin]	0.818	0.673	1.08	0.931	0.561
AGUGAUGUUGUGUUAUGCAAGGGAAGUGAUCGAGGACCGGUACGGCCGCCACUCGAGUGAUGAGUGAGUGAUGUUUGUUUAGGGA [ffgmullin]	1.18	0.451	0.933	0.883	0.401
AGUGAUGUUGUGUUAUGUUUGGGAAGUGAUCGAGGACCGGUACGGCCGCCACUCGAGUGAUGAGUGAGUGAUGUUUGUUUAGGGA [whbob_SS_Tryp_A_m9]	1.06	0.698	0.962	1.12	0.498
AGUGGACGUGUUCGGAGUGAUGUUCCGGAUACCAGACACGAAAGUGUCCCUUGGCAGCCGGAGUGAUGUUCCGGCGUUCACUAAA [Omei KL Theo A Exc B v2]	0.646	0.311	0.538	0.533	0.439
AGUGUACAGUCGGCCGCCACUCACUCCUCCUGCGUUAACGAGUGAUGUUUGUUUUUUAGUGGUACGAGGACCGGGACUUCUCUGA [theeternabot_sameState_KL_Trp_B_35]	0.237	0.118	0.275	0.245	0.26
AGUUCAGAGUGACUCGAUAAGAGUCACAAACGAGGACCGGUACGGCCGCCACUCGAAAUAACGAGAGUGAUGUUCUCGCUGGGCA [FiskerMod 2 - Jieux - Same State Tryptophan A]	0.726	0.674	0.862	0.824	0.244
AGUUUAGAGUGACUCGAUAAGAGUCACAAACGAGGACCGGUACGGCCGCCACUCGAAAUAACGAGAGUGAUGUUCUCGCUGGGCA [FiskerMod 3 - Jieux - Same State Tryptophan A]	0.332	0.377	0.458	0.384	0.126
AUAAACUUGCAGUGAUGUUGCAAGUAAGACUAGGAUAUCAGGAAACUGAGAAGGAGUCAUCUCCUUCACUUGCAACUAGGAGGAG [[K1]-[K2]-[F1]-[F2]-[F]'-[K]'-[F]''_Design6]	0.122	0.0934	0.143	0.144	0.133
AUAAUAAAGACGGCCGCCACUGAGAGUAGUGAUGUUACUCUUUUCCUUUAGAAAUAAUAUUUUAUCAGGACCGGGUUUUUUGAAU [JR_Nu_ExcTryptoB_Sub026]	0.0953	0.0811	0.0848	0.0796	0.092
AUAAUUAUAUAGAAAUAUAUAAUUAUAUAACGAGGACCGGUACGGCCGCCACUCGUGCCGGGCAUAAAAUGAGUGAUGUUCAUGU [KL-XTryp-A7 #analogue]	0.205	0.228	0.212	0.193	0.198
AUACGUUUCAGAGGAUAUCGGAGGAGAGUGAUGUUCUCCCAUAGCCCAGUGAUGUUGGAAGCUAUCCGAGAAGGCUGUGGGCGUA [Same State FMN B GF 15]	0.145	0.174	0.186	0.179	0.179
AUCGUUGUCUGAGGAUAUCGGUUAUCUGUAGUGAUGUUACAGUAUAUUCAUAUUAUACUUUCUAUUCGAGAAGGCAGACUACGUA [JR_Nu_ExcFMNB_Sub020]	0.169	0.0805	0.0825	0.0748	0.0829
AUCGUUGUCUGAGGAUAUCGUUUUACUGUAGUGAUGUUACAGAAAAUUCACAUUAUAAUUUCUAUUCGAGAAGGCAGACUACGUA [JR_ExcFMNB_Sub015]	0.134	0.112	0.12	0.114	0.12
AUCUAUGAGCGAGGAUAUGCAUAACGCGAGUGAUGUUCGCGAUGUGGGCGUAAUUGAUAAAAUGAAGCAGAAGGCGCACUCAUGA [Exclusion - FMW B / B]	0.165	0.115	0.177	0.155	0.12
AUGCCUAUGACGGCCGCCACUGAGAGUCAGUGAUGUUGACUCGAUACAGCUGAUUAGCAGCUAAUCAGGACCGGGUCAUACACAU [Tryp B SS t3]	0.243	0.158	0.244	0.245	0.123
AUGCGUGAUGCUCAAAGAGUAUCACCCGAUACCAGUAUGGAAACAUACCCUUGGCAGCGGGUAACUGCCCAGUGAUGUUGGACGC [Theophylline A K4 10]	0.286	0.16	0.242	0.288	0.234
AUGCUGUCGGCGUUAAAGUAGUAAUGUGAUACCAGAAAUGCUGUGUUCCCUUGGCAGCACAUUCUUACAGACAGUGAUGUUGUCU [theeternabot_exclusion_KL_Theo_A_8]	0.414	0.315	0.391	0.39	0.336
AUGGUUGUCGUAGGAUAUGUAGGAUAUUCUAAAAUAUGAAGUGAUGUUUCUAUAAUAAGAAGAAGGACAGAAGGACGAUAACCAC [FmnBS 1 - SaraBot transfer #DoubleAptamer]	0.0904	0.104	0.114	0.0893	0.108
